Assay results published in PMC9192595, “Dynamic interaction of BRCA2 with telomeric G-quadruplexes underlies telomere replication homeostasis”.

Columns and labels:
BRCA2OB [1] = biological target: T1, BRCA2OB (human, UniProt P51587 2665-3197); assay: smFRET; 0.1 and 1 uM BRCA2OB; EMSA: 10 nM probe, 50 mM Tris-HCl pH 7.5, 100 mM KCl, 2 mM b-ME, 10% glycerol, probe pre-incubated 37 C, gel 4 C (RAD51: +1 mM MgCl2, 2 mM ATP); smFRET: 50 mM Tris-HCl pH 7.9, 100 mM KCl, 20 mM NaCl, 1 mM DTT, 0.1 mg/ml BSA, 9% glycerol, 37 C; settings: protein: recombinant, tags: N-MBP, C-6xHis, label: 3' Cy3, stem 5' Cy5, 3' biotin
T1 sequence: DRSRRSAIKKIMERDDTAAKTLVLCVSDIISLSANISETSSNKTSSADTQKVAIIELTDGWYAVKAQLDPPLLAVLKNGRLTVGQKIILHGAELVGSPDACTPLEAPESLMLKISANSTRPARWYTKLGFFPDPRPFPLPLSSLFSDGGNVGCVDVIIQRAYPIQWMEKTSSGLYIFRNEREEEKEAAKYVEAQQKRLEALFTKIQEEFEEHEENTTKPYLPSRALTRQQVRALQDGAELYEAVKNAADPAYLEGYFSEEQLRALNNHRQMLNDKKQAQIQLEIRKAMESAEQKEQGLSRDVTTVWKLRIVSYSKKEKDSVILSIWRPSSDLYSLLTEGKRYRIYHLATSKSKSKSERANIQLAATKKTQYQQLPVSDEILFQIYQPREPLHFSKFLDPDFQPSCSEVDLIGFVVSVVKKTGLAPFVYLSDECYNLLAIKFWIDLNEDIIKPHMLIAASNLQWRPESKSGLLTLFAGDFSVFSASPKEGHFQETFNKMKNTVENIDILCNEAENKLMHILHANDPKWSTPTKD

BRCA2OB [2] = biological target: T1, BRCA2OB; assay: smFRET; 1 uM BRCA2OB; EMSA: 10 nM probe, 50 mM Tris-HCl pH 7.5, 100 mM KCl, 2 mM b-ME, 10% glycerol, probe pre-incubated 37 C, gel 4 C (RAD51: +1 mM MgCl2, 2 mM ATP); smFRET: 50 mM Tris-HCl pH 7.9, 100 mM KCl, 20 mM NaCl, 1 mM DTT, 0.1 mg/ml BSA, 9% glycerol, 37 C; settings: protein: recombinant; tags: N-MBP, C-6xHis; label: 3' Cy3; stem 5' Cy5, 3' biotin
GST-B2-9 = biological target: T2, GST-B2-9 (human, UniProt P51587 3189-3418); assay: EMSA; 150 mM KCl; EMSA: 10 nM probe, 50 mM Tris-HCl pH 7.5, 100 mM KCl, 2 mM b-ME, 10% glycerol, probe pre-incubated 37 C, gel 4 C (RAD51: +1 mM MgCl2, 2 mM ATP); smFRET: 50 mM Tris-HCl pH 7.9, 100 mM KCl, 20 mM NaCl, 1 mM DTT, 0.1 mg/ml BSA, 9% glycerol, 37 C; settings: protein: recombinant; tags: GST; label: 32P
T2 sequence: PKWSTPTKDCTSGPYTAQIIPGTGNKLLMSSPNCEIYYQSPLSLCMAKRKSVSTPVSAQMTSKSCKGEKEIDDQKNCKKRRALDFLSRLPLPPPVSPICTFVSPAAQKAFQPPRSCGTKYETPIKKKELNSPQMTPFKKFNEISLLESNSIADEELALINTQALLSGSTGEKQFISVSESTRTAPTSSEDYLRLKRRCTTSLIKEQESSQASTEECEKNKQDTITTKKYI

GST-B2-7 = biological target: T3, GST-B2-7 (human, UniProt P51587 2438-2824); assay: as above; settings: protein: recombinant; tags: GST; label: 32P
T3 sequence: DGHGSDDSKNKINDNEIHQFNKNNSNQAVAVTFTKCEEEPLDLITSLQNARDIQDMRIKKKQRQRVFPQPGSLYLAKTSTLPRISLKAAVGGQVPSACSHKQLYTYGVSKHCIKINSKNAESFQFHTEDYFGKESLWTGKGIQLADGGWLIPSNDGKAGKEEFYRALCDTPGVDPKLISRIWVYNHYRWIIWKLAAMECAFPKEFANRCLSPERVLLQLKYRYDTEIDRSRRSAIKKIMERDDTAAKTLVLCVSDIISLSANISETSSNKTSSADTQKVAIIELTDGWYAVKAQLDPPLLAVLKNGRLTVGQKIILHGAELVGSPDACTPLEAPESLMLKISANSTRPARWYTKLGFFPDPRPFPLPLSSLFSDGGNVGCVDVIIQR

GST-B2-8 = biological target: T4, GST-B2-8 (human, UniProt P51587 2780-3197); assay: as above; settings: protein: recombinant; tags: GST; label: 32P
T4 sequence: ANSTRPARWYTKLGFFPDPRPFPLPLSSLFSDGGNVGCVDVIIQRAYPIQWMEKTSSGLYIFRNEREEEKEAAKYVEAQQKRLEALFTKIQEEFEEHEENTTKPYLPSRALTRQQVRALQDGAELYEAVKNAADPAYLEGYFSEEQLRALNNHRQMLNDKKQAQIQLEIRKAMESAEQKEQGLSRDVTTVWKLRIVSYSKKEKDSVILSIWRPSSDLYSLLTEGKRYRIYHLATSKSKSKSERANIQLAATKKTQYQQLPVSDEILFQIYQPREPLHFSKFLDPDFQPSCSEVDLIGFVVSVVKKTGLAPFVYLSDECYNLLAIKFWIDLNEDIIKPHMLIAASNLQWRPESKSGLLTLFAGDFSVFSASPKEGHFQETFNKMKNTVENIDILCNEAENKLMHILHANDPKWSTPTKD

POT1OB = biological target: T5, POT1OB (human, UniProt Q9NUX5 10-278); assay: EMSA; 100 mM KCl; EMSA: 10 nM probe, 50 mM Tris-HCl pH 7.5, 100 mM KCl, 2 mM b-ME, 10% glycerol, probe pre-incubated 37 C, gel 4 C (RAD51: +1 mM MgCl2, 2 mM ATP); smFRET: 50 mM Tris-HCl pH 7.9, 100 mM KCl, 20 mM NaCl, 1 mM DTT, 0.1 mg/ml BSA, 9% glycerol, 37 C; settings: protein: recombinant; tags: N-MBP, C-6xHis; label: 5' 32P; intramolecular G4
T5 sequence: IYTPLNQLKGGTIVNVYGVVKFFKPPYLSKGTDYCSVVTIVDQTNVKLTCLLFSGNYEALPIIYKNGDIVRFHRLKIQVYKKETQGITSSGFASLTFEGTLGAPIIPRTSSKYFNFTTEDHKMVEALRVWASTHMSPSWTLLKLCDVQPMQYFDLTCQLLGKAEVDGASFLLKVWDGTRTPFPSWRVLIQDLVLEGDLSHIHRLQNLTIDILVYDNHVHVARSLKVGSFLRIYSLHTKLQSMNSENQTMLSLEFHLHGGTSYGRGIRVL

BRCA2OB [3] = biological target: T1, BRCA2OB; assay: EMSA; 100 mM KCl; rough estimate, max protein 1 uM; EMSA: 10 nM probe, 50 mM Tris-HCl pH 7.5, 100 mM KCl, 2 mM b-ME, 10% glycerol, probe pre-incubated 37 C, gel 4 C (RAD51: +1 mM MgCl2, 2 mM ATP); smFRET: 50 mM Tris-HCl pH 7.9, 100 mM KCl, 20 mM NaCl, 1 mM DTT, 0.1 mg/ml BSA, 9% glycerol, 37 C; settings: protein: recombinant; tags: N-MBP, C-6xHis; label: 5' 32P; intramolecular G4
BRCA2OB [4] = biological target: T1, BRCA2OB; assay: EMSA; 100 mM KCl; EMSA: 10 nM probe, 50 mM Tris-HCl pH 7.5, 100 mM KCl, 2 mM b-ME, 10% glycerol, probe pre-incubated 37 C, gel 4 C (RAD51: +1 mM MgCl2, 2 mM ATP); smFRET: 50 mM Tris-HCl pH 7.9, 100 mM KCl, 20 mM NaCl, 1 mM DTT, 0.1 mg/ml BSA, 9% glycerol, 37 C; settings: protein: recombinant; tags: N-MBP, C-6xHis; label: 5' 32P; intramolecular G4
BRCA2OB [5] = biological target: T1, BRCA2OB; assay: as above; settings: protein: recombinant, tags: N-MBP, C-6xHis, label: 5' 32P
BRCA2OB [6] = biological target: T1, BRCA2OB; assay: EMSA; EMSA: 10 nM probe, 50 mM Tris-HCl pH 7.5, 100 mM KCl, 2 mM b-ME, 10% glycerol, probe pre-incubated 37 C, gel 4 C (RAD51: +1 mM MgCl2, 2 mM ATP); smFRET: 50 mM Tris-HCl pH 7.9, 100 mM KCl, 20 mM NaCl, 1 mM DTT, 0.1 mg/ml BSA, 9% glycerol, 37 C; settings: protein: recombinant; tags: N-MBP, C-6xHis; label: 5' 32P
[7] = 29 bp stem with 3' G4 overhang 30 nt

B1: TelG5 smFRET (mixed)
DNA 1: GCGTGGCACCGGTAATAGGAGATAGGAGAGGTTAGGGTTAGGGTTAGGGTTAGGGTTAG
DNA 2: TCTCCTATCTCCTATTACCGGTGCCACGC
modifications: 3' amino; stem 5' amino
binding result (BRCA2OB [1]; [7]): binds

B2: TelG5TTT smFRET (mixed)
DNA 1: GCGTGGCACCGGTAATAGGAGATAGGAGAGGTTTGGGTTTGGGTTTGGGTTTGGGTTTG
DNA 2: TCTCCTATCTCCTATTACCGGTGCCACGC
modifications: 3' amino; stem 5' amino
binding result (BRCA2OB [1]; [7]): binds

B3: TelG5CTA smFRET (mixed)
DNA 1: GCGTGGCACCGGTAATAGGAGATAGGAGAGGCTAGGGCTAGGGCTAGGGCTAGGGCTAG
DNA 2: TCTCCTATCTCCTATTACCGGTGCCACGC
modifications: 3' amino; stem 5' amino
binding result (BRCA2OB [2]): no binding

GCCCGCGGTTAGGGTTAGGGTTAGGGTTAGGGGTGAATTC (ssDNA) [telomeric G-rich strand (40 nt)]
binding result (GST-B2-9): no binding | binding result (GST-B2-7): no binding | binding result (GST-B2-8): binds

GGTTGGGGTTGGGGTTGGGGTTGGGGTTGG (structured_DNA) [TelG5T2G4]
binding result (POT1OB): no binding | Kd (BRCA2OB [3]): 1400 nM | binding signal (BRCA2OB [4]): ~3 fold vs TelG5

B4: TelG5:TelC5 (dsDNA)
DNA 1: GGTTAGGGTTAGGGTTAGGGTTAGGGTTAG
DNA 2: CTAACCCTAACCCTAACCCTAACCCTAACC
binding result (BRCA2OB [5]; blunt): no binding

B5: TelG5TT smFRET (mixed)
DNA 1: GCGTGGCACCGGTAATAGGAGATAGGAGAGGTTTGGGTTGGGTTGGGTTGGGTTTG
DNA 2: TCTCCTATCTCCTATTACCGGTGCCACGC
modifications: 3' amino; stem 5' amino
binding result (BRCA2OB [1]; 29 bp stem with 3' G4 overhang 27 nt): binds

GCTAGGGCTAGGGCTAGGGCTAGGGCTAG (structured_DNA) [TelG-CTA]
binding result (BRCA2OB [6]): no binding

AGTTAGAGTTAGAGTTAGAGTTAGAGTTAG (ssDNA) [TelG5GAG]
binding result (BRCA2OB [5]; unfolded): no binding

GGTTAGGGTTAGGGTTAG (ssDNA) [TelG3]
binding result (BRCA2OB [5]): no binding

CTAACCCTAACCCTAACCCTAACCCTAACC (ssDNA) [TelC5]
binding result (BRCA2OB [5]): no binding

GAATTCACCCCTAACCCTAACCCTAACCCTAACCGCGGGC (ssDNA) [telomeric C-rich strand (40 nt)]
binding result (GST-B2-9): no binding | binding result (GST-B2-7): no binding | binding result (GST-B2-8): no binding

GGTTAGGGTTAGGGTTAGGGTTAGGGTTAGGGTTAG (structured_DNA) [TelG6]
binding result (BRCA2OB [5]; intramolecular G4): binds
